Molecular target: Dutch/Iowa CAA double mutant Aβ40 (UniProt P05067)
Test: SPR, Aβ peptide immobilised, MBP as analyte

Sequence of myelin basic protein (purified MBP) (P02686 135-304 limits assumed): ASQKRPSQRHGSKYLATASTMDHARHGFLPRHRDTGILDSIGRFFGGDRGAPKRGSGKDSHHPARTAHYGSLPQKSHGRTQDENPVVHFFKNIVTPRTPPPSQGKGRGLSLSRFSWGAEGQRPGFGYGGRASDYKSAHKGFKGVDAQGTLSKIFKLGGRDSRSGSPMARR
Sequence of Dutch/Iowa CAA double mutant Aβ40 (P05067 672-711, change not shown): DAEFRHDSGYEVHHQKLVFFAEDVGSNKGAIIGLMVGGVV

- Kd: 16.9 nM
Substance: myelin basic protein (purified MBP) (from UniProt P02686 2-171)
